# Measured values published in the supplement of paper PMC10126150.
# ± gives the standard deviation of the averaged measurements.
# System: ATP
# Test: switch fluorescence ratio, 500 uM ATP over buffer (Cy3 cluster intensity, sum of 5 cycles each) (fold (ratio)); higher = stronger signal-on switching upon ATP binding; sequences stand for … in TCGTCGGCAGCGTCAGATGTGTATAAGAGACAGTTTTTTTTTTTTTTTTTTTTTTTTT…TC
# Settings: aptamer strand: ATP DNA aptamer (quencher-CACCTGGGGGAGTATTGCGGAGGAAGG + anchor), 100 nM annealed; ATP concentration: 500 uM
# Procedure, shortened: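 Per cluster, summed Cy3 intensity from the target cycles was divided by that from the buffer cycles to give the fluorescence ratio, then averaged per switch-domain sequence. Clusters outside 100-1000 RFU were excluded. The Cy3-labelled switching-strand clusters, on a modified Illumina MiSeq flow-cell, were annealed to 100 nM quencher-labelled ATP aptamer and imaged in selection buffer, then after 15 min with 500 uM ATP at 22 °C, for five cycles with NaOH stripping and re-annealing between them.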
# 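Note: ATP exposure 15 min at 22 °C before imaging.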
row,Sequence,switch fluorescence ratio
1,TGCAGGTAGG,1.04 ± 0.036
2,CTCGGCCGAG,0.982 ± 0.016
3,AGCAAAAAGG,0.997 ± 0.054
4,GGAAAATAGT,1.02 ± 0.047
5,TCAAGTTTTG,0.972 ± 0.015
6,TGCGATTAAG,1 ± 0.047
7,GGCGGTATAT,0.99 ± 0.027
8,ATTGTTTCAG,0.976 ± 0.02
9,TACCAGGCGG,1.04 ± 0.037
10,GACGCATTTT,2.18 ± 0.17
11,TAGCCTGGAC,1.1 ± 0.031
12,TGGAATGGAT,1.01 ± 0.043
13,AAAGGTTCAA,1.03 ± 0.011
14,AGTTTGACCT,1.15 ± 0.032
15,CAAAGGGGCA,1.046 ± 0.0052
16,AAGGGAGGGC,0.96 ± 0.032
17,CTGTATGATC,1 ± 0.024
18,GAGATCTTTG,0.967 ± 0.015
19,TTGTCCGTGC,1.14 ± 0.15
20,CTGTGGGGAT,0.961 ± 0.014
21,TGTCGGGGTT,0.9932 ± 0.0083
22,TTTGTATGGG,0.972 ± 0.018
23,AGGATAGATA,1 ± 0.012
24,CGGTCATTTT,0.998 ± 0.033
25,GAGAGATTGT,1.005 ± 0.0086

row,Sequence,switch fluorescence ratio
1,TTTTGATCTT,0.991 ± 0.012
2,TGATTTCCAT,0.9996 ± 0.0064
3,TAAGTGACCG,1.07 ± 0.018
4,TTTAGTAATA,1.03 ± 0.021
5,AATAGGCACC,0.993 ± 0.018
6,GTAGTTCTAG,0.9852 ± 0.0081
7,GTGGACAGGC,1 ± 0.02
8,CCCGGTTGAT,1.047 ± 0.0074
9,CAAGGGTTGC,0.987 ± 0.056
10,TATAGTGGTC,0.971 ± 0.035
11,GAAAGTTTTG,1.01 ± 0.059
12,AAGGTTAATA,0.976 ± 0.08
13,AGGTTATTTT,0.992 ± 0.04
14,TTCGGGGGGA,1.04 ± 0.09
15,CCAGAAGGGT,0.974 ± 0.02
16,CGTTTTTTTT,0.989 ± 0.02
17,CCGTTTCTGG,1 ± 0.063
18,GAAAAGAGGC,1.1 ± 0.039
19,TGATTTTGGC,1.01 ± 0.017
20,TTTTGATTGA,1.03 ± 0.034
21,TAAATATTGT,1.01 ± 0.016
22,GCCAATACCA,1.22 ± 0.013
23,TTCAGTTCGT,1.008 ± 0.0089
24,GGGGCTTGGC,0.999 ± 0.031
25,TCGGGGTAGC,0.974 ± 0.025

row,Sequence,switch fluorescence ratio
1,ACGCCCATTT,1.15 ± 0.06
2,CACTGTGAAT,1.009 ± 0.0024
3,ACTTGGGGGG,0.994 ± 0.012
4,TTCGGAAGGG,0.956 ± 0.025
5,TACTGTGAGC,1.016 ± 0.0076
6,ATTTTATCAG,1.02 ± 0.018
7,CTAATTTAGG,1 ± 0.018
8,AGGGCTGGGG,0.973 ± 0.019
9,AAATGCAGGT,0.9908 ± 0.0061
10,GTTGGAGGTG,1.06 ± 0.012
11,TTTACGGGTC,0.981 ± 0.026
12,GTGCGGAGTG,0.97 ± 0.041
13,CTAGGTGGTT,0.991 ± 0.04
14,GAAGTACTAT,1.2 ± 0.021
15,GGTCTGGTTT,0.956 ± 0.013
16,GCTGGGGCGG,0.98 ± 0.029
17,ATTGTTCCGT,1.02 ± 0.021
18,CGCCGAGATT,1.08 ± 0.058
19,AGAGGAGTGT,0.943 ± 0.0098
20,AAGTTGCTAG,0.9976 ± 0.0048
21,GTGGGTCAGG,1.01 ± 0.013
22,AAAGGGAGTA,0.999 ± 0.041
23,TACTCATGGG,1.01 ± 0.035
24,TTTTAAGATT,0.999 ± 0.047
25,AGTTGTGCGT,0.981 ± 0.012

row,Sequence,switch fluorescence ratio
1,GTGTGATTTT,0.992 ± 0.028
2,TTTTCCTAGT,1.12 ± 0.073
3,CTGAGCTTCG,1 ± 0.0032
4,CGTTGATTTG,0.9908 ± 0.0057
5,TGGCGGGGCA,0.998 ± 0.035
6,CGTACAGGGG,1.207 ± 0.004
7,CGGGGCATTG,1.013 ± 0.0046
8,TATCGGACTG,1.01 ± 0.13
9,TAGAGGGCGG,1.03 ± 0.012
10,TTTCTAATGG,1.02 ± 0.026
11,TTGTGAGTAG,1 ± 0.028
12,GTTTTTTGTA,0.994 ± 0.022
13,TTAAGGGCAT,1 ± 0.015
14,TTATAATCGT,0.988 ± 0.014
15,GATCGGAGCG,1.04 ± 0.047
16,GACATAAAAA,0.986 ± 0.076
17,TTGGTGAATT,0.99 ± 0.019
18,TATTGGGTAT,1.03 ± 0.038
19,GCAAGTTAGA,1 ± 0.017
20,GACTTAAGGC,1.005 ± 0.0011
21,GAGATAAGGG,0.961 ± 0.061
22,GGGACCCAAG,1.02 ± 0.046
23,GCTAGTTATG,1.04 ± 0.1
24,TATTTTCGTA,1 ± 0.021
25,TAGGCCCTTG,1.01 ± 0.043

row,Sequence,switch fluorescence ratio
1,TATTAGGGAT,0.9951 ± 0.0058
2,AGGGTCGGAT,0.972 ± 0.033
3,GGGGGTTCCT,1 ± 0.032
4,TACGGGGGTG,1.01 ± 0.042
5,TGCCGGCGCT,0.989 ± 0.038
6,CACATTTAGG,0.978 ± 0.032
7,GCTGGGCTTG,0.9947 ± 0.0033
8,AGCGGCTAAT,0.981 ± 0.011
9,TCATGTATGG,0.977 ± 0.012
10,TTGGAGGCGG,0.984 ± 0.066
11,GTGAGTGGGG,0.972 ± 0.021
12,AGATGTCAGC,0.9708 ± 0.0063
13,TTATAAAGGA,1.05 ± 0.046
14,TGGTCCGCTA,1.755 ± 0.011
15,TACATGAGTA,1.03 ± 0.023
16,TGGCTTTGGT,0.9862 ± 0.0046
17,TATTTGAATG,1.01 ± 0.028
18,TTTCTGTCGG,1.02 ± 0.032
19,TTGTTTTACA,0.9843 ± 0.0096
20,AATTATGGGC,1.023 ± 0.0064
21,GTTGTGATGT,1 ± 0.013
22,AGGTTGAAGT,0.988 ± 0.011
23,GTAATGGCGG,1.013 ± 0.0019
24,CATTTTTGAA,1.006 ± 0.0066
25,GTTCATGCAG,0.993 ± 0.024

row,Sequence,switch fluorescence ratio
1,TTCCTTGGTC,1.18 ± 0.24
2,TTCGAGCGAT,1.78 ± 0.98
3,CTAGATCGAT,0.992 ± 0.022
4,GCACCAAGGA,1.07 ± 0.036
5,GATGTAGGTG,1.007 ± 0.0071
6,ATCTGAATTG,0.988 ± 0.013
7,TTGTGGCTGT,1.01 ± 0.023
8,GTTTTTGGTG,1 ± 0.018
9,CAGGGTGGAC,1.04 ± 0.04
10,AAATTGGGGG,1.02 ± 0.075
11,TGCTTATCTG,0.99 ± 0.032
12,AGGGCAACTG,1.07 ± 0.079
13,TTGAACTTGT,1.03 ± 0.028
14,GCGAGAACTA,0.967 ± 0.024
15,TAGGTTCTTT,0.995 ± 0.022
16,CATTCATGTT,0.985 ± 0.024
17,GAGGAAGTCG,0.9961 ± 0.0055
18,GACTGCGGGG,0.987 ± 0.038
19,TATTTGAGTT,0.96526 ± 0.00075
20,GTTTTTTAAT,1.015 ± 0.0061
21,GAGAATCGTC,1.05 ± 0.064
22,TTTGTTGGTG,1 ± 0.029
23,TAAAGCCGGT,1.009 ± 0.0023
24,TTTTCGCTTT,1.09 ± 0.17
25,AAGAGTATAA,0.985 ± 0.04

row,Sequence,switch fluorescence ratio
1,TTGGAAGCAT,1.01 ± 0.036
2,GGGTTGGAAA,0.989 ± 0.03
3,CCAGGTAGCA,1.27 ± 0.12
4,TATGGGAATG,1.019 ± 0.0021
5,TAAAATCAGT,0.992 ± 0.046
6,GGATTATTGG,1.002 ± 0.0083
7,GACGGTTATC,1.11 ± 0.059
8,GTAGCAGACG,1.16 ± 0.013
9,AATGCTGTAT,0.985 ± 0.011
10,TATAATGGCT,0.9555 ± 0.0054
11,AACGGTTTCC,1.02 ± 0.038
12,TATTATGCGG,0.984 ± 0.017
13,TTTTCCCCTC,1.64 ± 1
14,CTTACCTGAG,1.31 ± 0.045
15,GCGATCCCCT,1.77 ± 0.72
16,AATTTGTTGT,0.996 ± 0.025
17,TCTGAGTTTT,1.05 ± 0.06
18,ATTGATTGCG,0.989 ± 0.013
19,TTTGGAGGTA,1.01 ± 0.059
20,TTTTGTTACC,1.02 ± 0.018
21,TATGGACTGT,1.021 ± 0.01
22,GGCCCACCCA,1.02 ± 0.072
23,GATTTGTTGG,0.9815 ± 0.0055
24,TGAATTGGGA,1.02 ± 0.07
25,CATTATTTAG,1.01 ± 0.033

row,Sequence,switch fluorescence ratio
1,TTGAATTTGT,0.975 ± 0.023
2,GGCTAAGGGG,0.992 ± 0.023
3,GGCGGGAGGG,0.986 ± 0.029
4,TCTTTGAGGT,0.989 ± 0.022
5,TCACTCTATC,1.0455 ± 0.00057
6,GTTGATAAGA,0.982 ± 0.035
7,CAGGTTTAGT,0.9682 ± 0.0043
8,CGGGAGTTGT,0.99 ± 0.042
9,AGGTAGGTAA,1.03 ± 0.054
10,TCGGATTAGT,1 ± 0.025
11,AGCTGGGTTT,1 ± 0.021
12,CGGGGAGTAA,1.01 ± 0.012
13,TTCCAATGAT,1.01 ± 0.044
14,ACATGGATAA,1.012 ± 0.0044
15,AGGAGTGCTG,0.995 ± 0.052
16,TTATGGGAAG,0.998 ± 0.013
17,TTGGGTAGCT,0.996 ± 0.043
18,TTTGCAGCC,1.05 ± 0.066
19,TCACCTTGGA,1.05 ± 0.096
20,TTACAGCTGA,1.01 ± 0.016
21,TTGTTGTATG,1.02 ± 0.014
22,ATCGATATAT,0.991 ± 0.036
23,CGTGGGAGGT,0.987 ± 0.036
24,ATATGTCGCT,1.01 ± 0.026
25,ATATGCATAG,1.05 ± 0.051
